# Assay results: the DeepSol protein solubility set
# Assay: soluble on expression in E. coli; label from the status in PepcDB or PDB records
row,Sequence,soluble on expression in E. coli
1,MGSDKIHHHHHHMVVKIGLLGFGTVASGVPFLLEENQEKIEKAAHDSIEVAKVLVKDEAEKDRLLAAGHDYHFVTNIDDILADEDIAIVVELMGRIEPAKTFITHALEAGKHIVTANKDLLAVHGSELRALAEEKGLALYYEAAVAGGIPILRTLVNSLAADKVTRILGVLNGTSNFMLTKMVDEGWTYEKALQTAQELGYAESDPTNDVEGIDAAYKAVILSQFAFGMTVDFEHVAHKGISNITPEDVAVAQELGYVIKLVGDIQETTSGIAAEVSPTFLPKNHPLASVNGVMNAVFVESIGIGQSMYYGPGAGQKPTATSVMADIIRIVRRLKDNTIGKAFNEYSRSLQLAAPSDVKSEYYFSIDAPDKNGKMLRLAEIFNSEEISFKQILQQAADGETARLVIVTHEMSKTQLENVTDKLSKETDFTVLNTFKVLGE,not soluble
2,MSLRIKLLLRFKPPFLIPYNYPRYLYSFLLRAIELADKEVAGRIHNNKRDIKFVASKFMPIGSTKRLEQGLLVESGTVELYVGSTEDIILESLVRGLGQGVGMLHVRGQRLLSYEAELEEIPKHLSGKRFKTLSPVSVYHNNPPNGFRQWDLSPVGPPNSPFENEPKVWKELLFENLKSKYMMVYGEPYEGSFDIRVLTKKPKSRRLLVKIDERTGKPIYARVWEFDFKMWGEEELLRVAYELGIGMRNPHGFGMVEVIEGHHHHHH,soluble
3,MHHHHHHSSGVDLGTENLYFQSMNNVEKPDNDEDESEVPSLPLGLTGAFEDTSFASLCNLVNENTLKAIKEMGFTNMTEIQHKSIRPLLEGRDLLAAAKTGSGKTLAFLIPAVELIVKLRFMPRNGTGVLILSPTRELAMQTFGVLKELMTHHVHTYGLIMGGSNRSAEAQKLGNGINIIVATPGRLLDHMQNTPGFMYKNLQCLVIDEADRILDVGFEEELKQIIKLLPTRRQTMLFSATQTRKVEDLARISLKKEPLYVG,soluble
4,MGSDKIHHHHHHAEISDKVIRIGVLNDQSGVYADIAGTGSVEAARMAAEEFGGEIDGAKIEFVSADHQNKADIAANVANQWIDTGGVDAIVDIPNSSAMLAVQEIGRTKKRIVIASGGGSTDFTGPKCSPYGFHWTYDTYSLAKGTAESLVKDGGTTWYNIVVDYAFGHSLDTDTSRFITQAGGQVVGRVLHPLGTSDFSSYLLQAQGSGAKVIGVLSAGADTVNAIKQAAEFGITQGGQILAGLLIFDQTVHSLGLETAQGLRLTTGFYWDRTDATRAWSAEFLKRSTKNIPSMAHAGVYSGVRHYLAAIKAAGTDNADAVAAKMRETPVNDMFAENGTVRADGRMVHDMYLMEVKKPADSTSEWDLMRLVHVIPGEEAYRPLAEGGCPLVQ,not soluble
5,MGSDKIHHHHHHMHTESIKTPTDNHAKGAVSSTVSPTTYTPDLPSDEEDYSTLINMLPPVAPSSTPTEDESTESDNMPTDALHDFSQSLETQYGIAPGVNIQQQRQQRAEANGLTFACVGRQPVDDIWQIYPARKHKLEAYSLALDIAESVGLERYVEHVVNTPVDYAYRMLPLENAVENEMVKMCYDLLMLLQTVDSTSYPSVSITLSFLLDAEKIDDVTLVKLFRLIRLVRYIRQGAHHDNV,not soluble
6,MSLTEAAKLTFKVTNPNEKVKVRLTFSQSGEQKEVAIDAAGNGNIEITGFTPQYVTMQYTRGRRTLYLDPNQDLTLSFDSDNMWRNTTFEGAGAAINTYLGSKELQSLGMPDMKMQEAALIHKGDSLYAANCQVLEAAKLPADFTAQEKIRLQFYTYYYFSKYALYHPHFGKDDNYIPSKAYYEKLEAITPINAGLLALKEYKAFLPDAISAFSNKGKTVASNSTEQSVNYVDATIQDEKVAEFLIDQFVYNFVDNNGLDEADGLIVLFRKHVKDAKSIEKFNALCTKWEKLRSGNPSAASFSYPDINGKTVSLADLKGKYIYIDVWATWCGPCRGELPALKELEEKYAGKDIHFVSLSCDKNKKAWENMVTKDQLKGIQLHMGTDRTFMDAYLINGIPRFILLDRDGKIISANMTRPSDPKTAEKFNELLGLEGHHHHHH,soluble
7,MAERPRTIGNALEYVPEAIKTEAICLAALEIQRYGTVLKYIPDALKTEAMCLAAVQKYGYALEYVPEALKTEAICLAAGYEELQYWPEALKTEAVCLAAVEKNSKLLEFVPEALKTEAVCLAAGYKELQYWPEALKTEAPYLAAVQKDGSMLATVPEALKTEAFCLAAVQKNVRAFEYVPEALKTEAVCLAAVEKNGKLLEFVPEALRTEAICLAALQKDSSLLQYIPEALKTEAFCLTAVQKDSSLLQYVPEAFKTEVICLAAVQKDSSLLQYIPEALKTEAFYLAAVRKDGYSLKYIPEALKTEAICLAAVQKNGYLLKYVPEALKTEAICLSAVKQEGSALAYVPEALKTEALCLAAVQKNSSLLQYVPDTFKTEAFEAKMRSVISSGSGSSGYGIELIKWKFLSKEQKEWLEKIPYYYDSSKALEIPAELFTEEFCLAVVLKNSDGSVLQYIPDAKKTEAVCLAAVHERYKNALRYIPDALKT,not soluble
8,MGSDKIHHHHHHMLNMDLSQRVVINTADLEWQNSPAAGVLRKRLAREEAERGHATSIVKYQAGAKFNSHPHPLGEEILVLDGVFSDETGDYPAGTYLRNPEGFVHAPFSVQGCTLLVKLHQFQTTDSQQVAINTNETQWLPGHGQLQVMPLHQHGTESTALVKWPAGTHFQPHRHFGGEEIYVISGVFIDELGRYPAGTWIRSPHLSQHNPYVEQDTVILVKVGHL,not soluble
9,MSNVQNASRSSAFAAVEGDHWVESLDDGRHVLIRPLREEDRERERQFINRLSPATRHFRFLGEIKEASPALLDQLMDIDYQQSMAFVALVHEDGELREVGISRYAACCEEGQCECAVTIADDYQGLGLDAVLMRHLIDVARRNGFRQMYSVDSAANRAMRDLCCALGFVGQRDPDDSTQVIHRLAL,not soluble
10,MGSDKIHHHHHHMLSRPVRILIADEIGLGKTIQALAIARYLELQGEAKKILILVPKILREQWKQEIRRLGGKPVVITNGSEVERKLLRKATFNNAAEYFVVSIDLAKSQNHSEKFSAIDWDLLIVDEVHNVTYNTQRYNFLKSLIEKSKEDLNIVFLSATPHRGNPKDYIERLRLLDPTLTADWNALDSEKFYRRTHGVLVFRRTKKVVNDLEKREIFKKCDFNAVIVDITEEEKRFFEELDEVLFEMVKDVHMNSPVALLAVLLRKRAASSYESALKTINNIIKNQYSGASGEDVLEDQIKQIFGLGYDEMELEENSEIDDLISSIINSVAKRYPLDKGQINALEKILKIGKAIGKNDSKLKTLAEVLAYHLKKNEKVIVFTEFKDTLEYLRNNLPTLLEQEGIHLSEEKDISVLHGGMKSEEIEKQVEKFANDGKLLISTDVASEGLNLQVANILINYEIPWSPIKLEQRVGRIWRLNQTKETIAYTLLLNHEADLQILESLYQKILNITDAVGTGPNVGKPVFGTRTLSGNFEYRLENVQDEETSDSPVSEFELMLSAIKRRNLDEQTKRIISTLKSLRTKIEEVVPLNTCNEIQEELNSVLLPDDMESEIVFEKLKKYISVFENSFINSIGSYLFKILTDRIHEPLLNEKCLKIAVKNESKEYRLFQVEVIDRGRKIYEYPVLIEIGGNVSPQLYRGTSLLEKLADVFSKEWFVIEWANPKEKMDIQTAKLIDRSAKDLQSIMDKHTDYDIKLNESLMKTDSLFRRLNTRSSEILRVEGLSDREFSVFKLLHPSILEILGLSLDSIELPPSDYEKWMERSFVPLEDILESERKAMEIVMDIEKKRLIEKYGESSDWKVEDVSLKEHYDIKVSEPEGEKYIEVKGHKPLWLSAELTAAEHRFANDNRDRYWIYIVSNLGGKKPVILKIFSPFDDEKRKIYLVHENKDIDITEIFGSTIKTKQRYVISLGQKIYRRR,not soluble
11,MGSDKIHHHHHHDKMNKNTGALQFDSIQVNETAHLFNDTAKPACNIIINFAYPVKSSDDMLKDSLNAYFISVCFGDKYIGEKPEAVVKQYAKNYIDEYRHDQEPMYAEDEKNKESDAVVGAWYSYYKSIESHVQLYEKDLLVYRVDYNEYTGGAHGMYMSTFLNMDLTLMRPLRLDDIFVGDFQEALTDLIWNQLMADNKVTTHEALEDMGYASTGDIAPTENFYLSKEGITFYYNIYDITPYSMGPVKVTIPYSMMEHLLGSNPILGDLKD,not soluble
12,MSQLVLDLKCLKDKIATNYDIHNNVYGGNGMEPNIIHPSKRFRIVVRLVDFLFCKSDEEFIKGFFCQMIVRNLHCLNSTNGAEEMRLYMSERLFSAHKDDLRLINGQVLDVRIGVWYGIHQSPPIFEIIDFKILSRNDVRDFCEFVKSPLGEKFLNISNS,not soluble
13,MGSDKIHHHHHHMAKNKTAYVCNECGQDFPRWQGQCSACQEWNTITEVRLGAASPGRSTKFVGYAGASSNEVKTLDQIDLNAMPRILSHFGELDRVLGGGIVPGSAILIGGHPGAGKSTLLLQTLCHLAEQMPALYVTGEESLQQVAMRAHRLGLPTNKLRMLSETSVEQICEVALKELPKVIVVDSIQVMHMSDVASSPGSVSQVRESASYLTRFAKENGIAVIMVGHVTKDGSLAGPKVLEHCIDCSVMFEGDSDSRYRTLRSHKNRFGAINELGVFAMTERGLKEVANPSAIFLSRGEEESSGSLVMVVWEGTRPLLVELQVLVDNSAMSNPRRVAVGMDANRLAMLLAVMHRHGGLQMSDQDVFVNVVGGVKVTETSADLTLLLAMVSSFRGDILPSDLVAFGEVGLSGEIRPVPNGQERLIEAAKHGFKRAIVPKANVPKKPPAGMEVVGVSKLSEALEAI,not soluble
14,QTVIKGLVLAADNEAPVSYASIYVAETKSGVVADESGRFILRLHPGRYRLAIRSMGYTPLETELLVGEKSEEKTFRLSSVIYDLKEVEVIGKRPKEDPAYPIMRELIARTPVYEHMVKSYQAKVYTKGSMRLDKLPFWLRYKKADGISAKDLEKKRFVIESQASLEFRHPNKYNKQVRAMRSSIPDDLKSDTTDYMQIISTNIYAKEFSLDGIVNMASPIRTGVLESYTYKLEGTSREKERKVYHISFKGRRDAMRGELWVIDSIWCLQALKLEIKAYDMIRYKVDISLNPLEKDVYLPTTYAIGMEMQSMGLKLEYQYFSSLVYDSLEIDRKLLSTARRAEGLRFRTNREVNRHLRMLESRLDTLGYHLPDKYMLPDTELQAKVRFDSLAFDRDSSYWDAVVTAPLTDEEAQSYANRDSLMQAFEKKRRFGGGREGERTGRTSILGAILGGHDYKMGEGTTLGFNGLIRGSLYDYRYTDGFWLGQSFFFRQKFSKGVDLTLRPILYYTTHRRKLYWDVRADFRYAPLSGGLLSLSAGRQSADLTGPFANTDWRIQTFLTTLVDGRGHLMLYDKKYLRLSNQIDLLPGLQLFLFAEGRHSSPLAENRVWGIFKKPIKNKLIGGIASSPDSLLYSMPDHRSLTVGGSIRYNPAPYYRLDKDGRKRYDGVGTRAPLFGLTYRQAIPLGREHDSDYIYLSGSVRQNLRLNPLHSLYYHFTVGSYFRRHTVHLDEQRYLKADNALFQIGGTLHDSFQTLPPYSYTDQNFLILQTR,not soluble
15,SMQICDTYNQKHSLFNAMNRFIGAVNNMDQTVMVPSLLRDVPLSEPEIDEVSVEVGGSGGCLEERTTPAPSPGSANESFFAPSRDMYSHYVLLKSIRNDIEWGVLHQPSSPPAGSEESTWKPKDILVGLSHLESADAGEEDLEQQFHYHLRGLHTVLSKLTRKANILTNRYKQEIGFSNWGH,soluble
16,MEKNMRPYTVLWADDEIDLLKPHILFLEQKGYQVTPVLSGNDAIEAVQNNDFDIVFLDENMPGIGGLDALQKIKELKPYTPVVMITKSEEEHIMTQAIGGKIADYLIKPVNPNQLLLSLKKNLQQHSIISETTNTNYRQEFVQLGTQMSGKLSFEEWKELYRRIVFWEIELEQADRQMGELLEMQKQEANRLFARFVTQNYREWIAKPDTRPTMSPDLFKQKVFPLLDNGEKVFFILIDNFRQDQWESVKSMLSEFYTFEEDMYLSILPTATQYARNAIFSGLMPLQIEKMFPDLWVDEESEEGKNLNEEPMIRTLIERYRKHYSFSYNKVYETKFGERLLGQIRSLSQNQLNVIVLNFVDMMSHARTDSKMIRELASNEAAYRSLTKSWFKHSTTYNLFRSIAEMGYKVVLTTDHGTIQVKNPVKVIGDRSTNTNLRYKIGKNLDYNPKEVFEIKDPASVGLPHNNLSDKFIFTKEDDFFAYPNNYNYYVQYYRNTFQHGGISLEEMLVPVITMQPK,not soluble
